Reference: the supplement of paper PMC7877785
± gives the uncertainty stated by the source.

Assay: self-splicing fitness, log relative to wild type (ln ratio); higher = more splicing; Tetrahymena group I intron in knt gene, E. coli kanamycin selection, DiMSum; sequences stand for … in CUCUCU…GGAGGGAAAAGUUAUCAGGCAUGCACCUGGUAGCUAGUCUUUAAACCAAUAGAUUGCAUCGGUUUAAAAGGCAAGACCGUCAAAUUGCGGGAAAGGGGUCAACAGCCGUUCAGUACCAAGUCUCAGGGGAAACUUUGAGAUGGCCUUGCAAAGGGUAUGGUAAUAAGCUGACGGACAUGGUCCUAACCACGCAGCCAAGUCCUAAGUCAACAGAUCUUCUGUUGAUAUGGAUGCAGUUCACAGACUAAAUGUCGGUCGGGGAAGAUGUAUUCUUCUCAUAAGAUAUAGUCGGACCUCUCCUUAAUGGGAGCUAGCGGAUGAAGUGAUGCAACACUGGAGCCGCUGGGAACUAAUUUGUAUGCGAAAGUAUAUUGAUUAGUUUUGGAGUACUCGUGGUCG
In short: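 The eight P1ex-region nucleotides of an intron in the knt kanamycin-resistance gene on pET-22b(+) were all randomised and the library put into E. coli BL21(DE3). Six replicate transformations were grown overnight at 37°C or 30°C on LB agar with or without 25 μg/mL kanamycin, together with 100 μg/mL carbenicillin, 50 μM IPTG and 0.2% rhamnose. Colonies were pooled and amplicon-sequenced on an Illumina HiSeq 2500. Fitness from DiMSum is the error-weighted combination of wild-type-normalised replicate fold changes, kanamycin over none.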

Row | Sequence | self-splicing fitness (ln) (30 °C) | self-splicing fitness (ln) (37 °C)
1 | UGGUAGCAAUAUUACGGUGG | -3.53 ± 0.2 | -1.94 ± 0.14
2 | CCUGAGCAAUAUUACGAUCG | -3.71 ± 0.27 | -3.46 ± 0.3
3 | CAGCAGCAAUAUUACGUGCU | -3.3 ± 0.13 | -1.94 ± 0.12
4 | UUGUAGCAAUAUUACGUUUU | -2.52 ± 0.24 | -1.98 ± 0.17
5 | GCAUAGCAAUAUUACGGCUU | -0.36 ± 0.11 | -0.322 ± 0.11
6 | UGCGAGCAAUAUUACGCGAA | -3.08 ± 0.19 | -2.19 ± 0.19
7 | GCAAAGCAAUAUUACGGCAA | -0.673 ± 0.094 | -0.722 ± 0.091
8 | CGGUAGCAAUAUUACGUACC | -3.27 ± 0.4 | -1.89 ± 0.3
9 | AGGUAGCAAUAUUACGAGGC | -3.696 ± 0.036 | -2.87 ± 0.047
10 | UGUAAGCAAUAUUACGGGGU | -3.75 ± 0.31 | -2.24 ± 0.28
11 | GUGUAGCAAUAUUACGAAGC | -2.07 ± 0.17 | -0.684 ± 0.23
12 | GCGUAGCAAUAUUACGAUGG | -1.91 ± 0.17 | -2.82 ± 0.31
13 | CAUAAGCAAUAUUACGGGAG | -1.96 ± 0.097 | -1.14 ± 0.095
14 | CACUAGCAAUAUUACGUUUG | -2.29 ± 0.079 | -1.42 ± 0.11
15 | GUUGAGCAAUAUUACGGGUC | -2.23 ± 0.26 | -1.89 ± 0.28
16 | AUACAGCAAUAUUACGUUGU | -2.77 ± 0.098 | -2.81 ± 0.13
17 | CGGAAGCAAUAUUACGCGUA | -2.96 ± 0.29 | -2.47 ± 0.25
18 | CCGAAGCAAUAUUACGUAAA | -3.14 ± 0.22 | -2.12 ± 0.33
19 | UUAAAGCAAUAUUACGCCGG | -0.245 ± 0.12 | 0.421 ± 0.18
20 | UAGAAGCAAUAUUACGAACU | -1.79 ± 0.14 | 0.0205 ± 0.13
21 | UAGAAGCAAUAUUACGAUCG | 0.151 ± 0.093 | 0.149 ± 0.11
22 | AGUGAGCAAUAUUACGCCAU | -2.58 ± 0.43 | -0.383 ± 0.35
23 | CUGGAGCAAUAUUACGGUAA | -2.61 ± 0.28 | -2.89 ± 0.25
24 | GAGUAGCAAUAUUACGAAGG |  | -2.74 ± 0.44
25 | UGCGAGCAAUAUUACGUCCG | -3.31 ± 0.4 | -0.194 ± 0.31

Row | Sequence | self-splicing fitness (ln) (30 °C) | self-splicing fitness (ln) (37 °C)
26 | AGUGAGCAAUAUUACGUAUU | -3.27 ± 0.25 | -2.23 ± 0.31
27 | UGGCAGCAAUAUUACGUGCC |  | -1.69 ± 0.26
28 | UUAGAGCAAUAUUACGGUGU | -2.05 ± 0.35 | -2.19 ± 0.3
29 | GAUAAGCAAUAUUACGUCGC | -1.76 ± 0.22 | -1.17 ± 0.27
30 | CUCGAGCAAUAUUACGUCUC | -2.55 ± 0.23 | -2.5 ± 0.39
31 | CAAAAGCAAUAUUACGGGGG | -3.13 ± 0.18 | -2.38 ± 0.15
32 | UCUCAGCAAUAUUACGGUCA | 0.115 ± 0.061 | 0.0673 ± 0.075
33 | CCGCAGCAAUAUUACGACAC | -2.84 ± 0.28 | -2.71 ± 0.38
34 | GUCAAGCAAUAUUACGGCGA | -2.1 ± 0.14 | -0.0443 ± 0.12
35 | AGCAAGCAAUAUUACGCUGU | -2.69 ± 0.12 | -0.265 ± 0.12
36 | CUUAAGCAAUAUUACGGCGG | -1.25 ± 0.095 | -0.194 ± 0.083
37 | GCUCAGCAAUAUUACGUUUA | -1.44 ± 0.09 | -0.861 ± 0.083
38 | UCCUAGCAAUAUUACGCUGC |  | -2.02 ± 0.29
39 | UGUGAGCAAUAUUACGGAAU | -3.76 ± 0.32 | -2.04 ± 0.23
40 | CUUCAGCAAUAUUACGUUUA | -3.96 ± 0.3 | -2.49 ± 0.23
41 | UUAAAGCAAUAUUACGAACU | -0.567 ± 0.11 | -0.0402 ± 0.12
42 | ACUGAGCAAUAUUACGGUUC | -3.46 ± 0.19 | -2.08 ± 0.21
43 | CUAUAGCAAUAUUACGCAAG | -3.11 ± 0.2 | -2.22 ± 0.18
44 | ACAAAGCAAUAUUACGAGCC |  | -1.97 ± 0.25
45 | CAACAGCAAUAUUACGUUCA | -1.06 ± 0.051 | 0.193 ± 0.061
46 | CGACAGCAAUAUUACGAUUA | -1.99 ± 0.12 | -0.873 ± 0.1
47 | CACUAGCAAUAUUACGCGUU | -2.86 ± 0.13 | -0.877 ± 0.11
48 | UUGCAGCAAUAUUACGCGUG | -3.13 ± 0.14 | -2.7 ± 0.17
49 | GCAUAGCAAUAUUACGGCAU | -1.21 ± 0.096 | -1.19 ± 0.083
50 | CAUGAGCAAUAUUACGUGUA | -3.33 ± 0.21 | -2.1 ± 0.15

Row | Sequence | self-splicing fitness (ln) (30 °C) | self-splicing fitness (ln) (37 °C)
51 | UGUUAGCAAUAUUACGAACA | -1.08 ± 0.2 | -1.15 ± 0.32
52 | AUUGAGCAAUAUUACGCACU | -0.165 ± 0.14 | -0.756 ± 0.15
53 | ACGAAGCAAUAUUACGUUAC | -3.77 ± 0.4 | -1.17 ± 0.16
54 | UACUAGCAAUAUUACGCUGC |  | -3.01 ± 0.43
55 | GAGUAGCAAUAUUACGGUGA | -1.93 ± 0.16 | -1.62 ± 0.14
56 | GAGAAGCAAUAUUACGUAAC | -1.62 ± 0.11 | -0.536 ± 0.12
57 | CUAUAGCAAUAUUACGCAUU | -5.27 ± 0.38 | -2.95 ± 0.31
58 | UUCUAGCAAUAUUACGCAGG | -3.52 ± 0.4 | 
59 | UACCAGCAAUAUUACGUUGA | -1.61 ± 0.049 | -0.796 ± 0.062
60 | AAUUAGCAAUAUUACGGACA | -0.45 ± 0.19 | -1.28 ± 0.18
61 | CUUAAGCAAUAUUACGACUG | 0.139 ± 0.087 | -0.589 ± 0.13
62 | ACUCAGCAAUAUUACGUGCU | -2.27 ± 0.082 | -2.53 ± 0.11
63 | GUGAAGCAAUAUUACGCAUG | -1.5 ± 0.15 | -1.23 ± 0.18
64 | ACGUAGCAAUAUUACGAAGU | -2.97 ± 0.2 | -2.86 ± 0.21
65 | UACUAGCAAUAUUACGCCCU | -0.435 ± 0.14 | -0.784 ± 0.15
66 | UUACAGCAAUAUUACGGAUA | -2.25 ± 0.21 | -0.725 ± 0.12
67 | UUCAAGCAAUAUUACGCGGG | -3.35 ± 0.28 | -1.95 ± 0.21
68 | CCGUAGCAAUAUUACGAACC |  | -2.06 ± 0.45
69 | CCCGAGCAAUAUUACGAACU |  | -1.58 ± 0.39
70 | UCUUAGCAAUAUUACGGGAA |  | -0.457 ± 0.3
71 | UCAAAGCAAUAUUACGUUCC | -2.89 ± 0.38 | 
72 | CCUUAGCAAUAUUACGGCUA | -2.52 ± 0.45 | -1.75 ± 0.37
73 | UAUAAGCAAUAUUACGUAAU | -3.56 ± 0.37 | -0.822 ± 0.19
74 | GUGCAGCAAUAUUACGAGCC | -1.65 ± 0.2 | 
75 | AAAUAGCAAUAUUACGUCAG | -2.52 ± 0.12 | -1.41 ± 0.11

Row | Sequence | self-splicing fitness (ln) (30 °C) | self-splicing fitness (ln) (37 °C)
76 | CGUCAGCAAUAUUACGGACG | -3.63 ± 0.32 | -1.95 ± 0.23
77 | UUUCAGCAAUAUUACGUUGU | -3.23 ± 0.21 | -2.06 ± 0.15
78 | CCCUAGCAAUAUUACGUCUA | -2.5 ± 0.19 | -2.12 ± 0.2
79 | CUGAAGCAAUAUUACGUUGA | -4.04 ± 0.18 | -2.66 ± 0.21
80 | GGUUAGCAAUAUUACGUCUA | -0.569 ± 0.12 | -0.565 ± 0.093
81 | ACUUAGCAAUAUUACGAGGA | -1.87 ± 0.16 | -1.66 ± 0.23
82 | CUCGAGCAAUAUUACGCUGC | -3.61 ± 0.42 | 
83 | CGCGAGCAAUAUUACGACGG | -0.512 ± 0.1 | -0.452 ± 0.11
84 | AGUUAGCAAUAUUACGUAAC | -4.54 ± 0.46 | -2.21 ± 0.24
85 | UGCUAGCAAUAUUACGACGG | -0.768 ± 0.16 | -0.44 ± 0.18
86 | CCCGAGCAAUAUUACGAGCC | -2.46 ± 0.2 | -2.12 ± 0.28
87 | GUGAAGCAAUAUUACGGAGC | -4.68 ± 0.46 | -1.38 ± 0.16
88 | AUGUAGCAAUAUUACGCAGU | -2.49 ± 0.12 | -1.29 ± 0.11
89 | ACAGAGCAAUAUUACGCGCU |  | -1.91 ± 0.2
90 | ACUUAGCAAUAUUACGGAAU | -2.99 ± 0.17 | -2.13 ± 0.2
91 | UACCAGCAAUAUUACGGUAC | -3.72 ± 0.22 | -2.04 ± 0.16
92 | GAUGAGCAAUAUUACGACCC | -0.245 ± 0.34 | -0.0127 ± 0.3
93 | CCACAGCAAUAUUACGAGGA | -3.8 ± 0.18 | -1.32 ± 0.12
94 | GUGAAGCAAUAUUACGAGUU | -2.5 ± 0.12 | -1.14 ± 0.15
95 | GGGAAGCAAUAUUACGGUUC | -2.44 ± 0.18 | -1.03 ± 0.22
96 | CCACAGCAAUAUUACGCGCA | -3.95 ± 0.3 | -3.06 ± 0.24
97 | UGAGAGCAAUAUUACGUAUA | -3.03 ± 0.42 | -1.66 ± 0.35
98 | CGAGAGCAAUAUUACGUAGC | -4.39 ± 0.42 | -2.52 ± 0.27
99 | CCAGAGCAAUAUUACGUAGA | -1.88 ± 0.12 | -2.08 ± 0.23
